Assay results from the supplement of paper PMC12042874.
± gives the uncertainty stated by the source.

Assay: amyloid nucleation score (Sup35N fusion, yeast selection) (log enrichment); library NNK1; higher = more nucleation; inactive = no reads after selection
Outline: (§1)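 Libraries of peptides of 20 random codons fused to Sup35N were expressed in psi-negative yeast and induced 24 hours with 100 μM copper sulfate. Selection was 7 days at 30°C on medium lacking adenine and uracil, and plasmid inserts were Illumina-sequenced before and after selection. Nucleation score is the DiMSum log enrichment of output over input reads, centred on the mode score of non-aggregating sequences, and sequences with under 100 input reads were left out.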
Substance AACGWHRLICNKFSQFTRGP has an amyloid nucleation score of -0.021 ± 0.75.
Substance AAFDRNSEGNAPMPVMCPCI has an amyloid nucleation score of 0.34 ± 0.75.
With AAKRSETAP the amyloid nucleation score was -0.308 ± 0.43.
With AAVCRSILVF the amyloid nucleation score was 0.674 ± 0.88.
With ACDRMGGVSGPDSAAVWPYI the amyloid nucleation score was -1.91 ± 2.7.
ACGRLFDYVAFHRLLDQTHW showed an amyloid nucleation score of -0.617 ± 0.65.
Substance ACLGVTRGYSGPSTTKSFLR has an amyloid nucleation score of -0.238 ± 0.46.
With ACLISMMLVLCYI the amyloid nucleation score was 1.67 ± 0.53.
For ACYGLIDQLFQLANPYRTAM, the amyloid nucleation score was 0.412 ± 0.32.
Work on ACYNGHTSRWLR yielded an amyloid nucleation score of 1.09 ± 0.85.
Work on ADAGGSQVWAYQAQIICPKW yielded an amyloid nucleation score of -0.63 ± 1.3.
Substance ADGWFQFWRGKYFGGRFQFT has an amyloid nucleation score of -0.166 ± 0.61.
Work on ADRKSFLQSCGLCE yielded an amyloid nucleation score of -0.661 ± 0.32.
For ADWTSSLNLGEYYMFKFSPE, the amyloid nucleation score was 1.02 ± 0.38.
For AECLDPMNAVTVCRGSWL, the amyloid nucleation score was 0.101 ± 0.35.
Substance AESLWQFTWQVTKPHEEGSE has an amyloid nucleation score of 4.35 ± 0.068.
Substance AFAVSSYWVRGIHRESYGSV has an amyloid nucleation score of 0.591 ± 0.69.
Substance AFGMIVLGRSTNGGYCTDGN has an amyloid nucleation score of 2.83 ± 0.16.
AFLQLDS showed an amyloid nucleation score of 0.665 ± 0.36.
AFMSRVPFSHCIKSGGLQGT gave an amyloid nucleation score of 0.19 ± 0.49.
With AFNGTSAGMCKWGACTEWCV the amyloid nucleation score was -0.382 ± 0.28.
AFNKAVMSDTQL gave an amyloid nucleation score of -0.7 ± 0.6.
AGCHGSDSHPFRQPSPLLLF showed an amyloid nucleation score of 0.462 ± 1.2.
AGFVSVVVF showed an amyloid nucleation score of 0.005 ± 0.38.

Assay: amyloid nucleation score (Sup35N fusion, yeast selection) (log enrichment); library NNK2; higher = more nucleation; inactive = no reads after selection
Outline: as §1
YHKRSPIYSVLYDLDSFK gave an amyloid nucleation score of -1.04 ± 1.1.
In the case of YHLGSSLLLCI, the amyloid nucleation score is reported as “inactive”.
YHLKYRGSMGVPCLNTFVWN gave an amyloid nucleation score of 5.15 ± 0.055.
In the case of YHSFCWANMIHRINSIVRLL, the amyloid nucleation score is reported as “inactive”.
With YICVTMPVWIH the amyloid nucleation score was 7.536 ± 0.042.
In the case of YIDGDNYHGILCHSRV, the amyloid nucleation score is reported as 3.86 ± 0.11.
In the case of YIFGSCGVYLFPPPAKF, the amyloid nucleation score is reported as 6.88 ± 0.078.
YIGRMVV showed an amyloid nucleation score of 0.306 ± 0.65.
With YIIDRKEHFLSKCY the amyloid nucleation score was -0.738 ± 0.55.
YILMHGSHM gave an amyloid nucleation score of 3.73 ± 0.071.
YINLIWFSYMFGESFARGQR showed an amyloid nucleation score of 4 ± 0.13.
YIPCDKANRSFENC showed an amyloid nucleation score of 1.19 ± 0.35.
Substance YIPMIKL has an amyloid nucleation score of -0.794 ± 0.43.
YISGWYCVNTVSRNNSYRES gave an amyloid nucleation score of -1.72 ± 0.49.
In the case of YKLFWKWGFSGITDDSTLMR, the amyloid nucleation score is reported as “inactive”.
In the case of YKPRGHEVRSVG, the amyloid nucleation score is reported as -0.752 ± 0.48.
YKRRRWRVENRNGVSFSHTD gave an amyloid nucleation score of 0.806 ± 0.3.
Work on YKWIIESRMGALPKQLCRRA yielded an amyloid nucleation score of -0.465 ± 0.42.
Work on YKWWDLCLNFPCGRLKAQPR yielded an amyloid nucleation score of 1.28 ± 0.25.
In the case of YLARASYS, the amyloid nucleation score is reported as 0.258 ± 0.18.
Work on YLASFVFGIVNTYSAVALS yielded an amyloid nucleation score of 0.552 ± 0.66.
Work on YLCLTFCNIDNLQVMFKSAY yielded an amyloid nucleation score of 8.209 ± 0.034.
Work on YLCSSRITL yielded an amyloid nucleation score of 1.31 ± 0.47.
For YLIRVHICGCKYVERLFHSV, the amyloid nucleation score was “inactive”.
In the case of YLKKVQWYRQAYFGA, the amyloid nucleation score is reported as -0.694 ± 0.28.
Substance YLKPLAFITSILHAMTRPWH has an amyloid nucleation score of -1.28 ± 0.75.
YLKRPRPRRLGSP gave an amyloid nucleation score of 0.405 ± 0.33.
Work on YLLHNSLKFRVHHSL yielded an amyloid nucleation score of -0.68 ± 0.39.
With YLLIPWKSKDPLHIGLLF the amyloid nucleation score was -0.381 ± 1.1.
YLLSMVRKDPVSRVSLKKGW gave an amyloid nucleation score of 0.566 ± 0.66.
With YLLYCVS the amyloid nucleation score was “inactive”.
For YLMVISEQIGDMCTISS, the amyloid nucleation score was -1.36 ± 0.76.
YLNLYLYCVNSSNDSYV gave an amyloid nucleation score of 6.513 ± 0.031.
Work on YLSLVKSPLSSLNSFWTWM yielded an amyloid nucleation score of -0.348 ± 0.23.
Work on YLSYSTLLPKSETEWMYCVL yielded an amyloid nucleation score of -0.631 ± 1.
YLTISIAGVVLNLFVIACIV gave an amyloid nucleation score of 0.757 ± 0.4.
YLTLTYPLLCLALNNLSVVL showed an amyloid nucleation score of 2.38 ± 0.15.
For YLTNLNNCADKSNCW, the amyloid nucleation score was “inactive”.
With YLYILVRNGGASSVC the amyloid nucleation score was -0.635 ± 0.4.
Work on YMCKVSPLRILSF yielded an amyloid nucleation score of 2.66 ± 0.056.
With YMCQRTETMSVSTWGKILCV the amyloid nucleation score was “inactive”.
With YMCRYGFMDNFCAVHVSFVE the amyloid nucleation score was 5.645 ± 0.055.
For YMHCNNCSNVHVWAKKKCRE, the amyloid nucleation score was 8.432 ± 0.043.
YMKTN showed an amyloid nucleation score of -0.38 ± 0.32.
YMLMMALFQRC gave an amyloid nucleation score of 2.75 ± 0.15.
YMRSWEVLNMCGVSWLCIFA gave an amyloid nucleation score of 7.419 ± 0.064.
For YMSLNKTAVTCVCHM, the amyloid nucleation score was -0.425 ± 0.5.
Substance YMSYNYGTVLEFLELPDSHR has an amyloid nucleation score of 1.56 ± 0.11.
For YMTPVLDSHSFADVSAIRCV, the amyloid nucleation score was 0.212 ± 0.39.
In the case of YMVMA, the amyloid nucleation score is reported as -0.67 ± 1.1.
For YMYFVFIRSSKSVMIKDVHC, the amyloid nucleation score was “inactive”.
Substance YNCLACARVKWKSVCGRMSC has an amyloid nucleation score of 0.388 ± 0.32.
In the case of YNCSI, the amyloid nucleation score is reported as 4.29 ± 0.11.
YNGLEVAYLF gave an amyloid nucleation score of 5.43 ± 0.062.
Work on YNGRAIEHCQSMVSFRAVSR yielded an amyloid nucleation score of -0.041 ± 0.6.
With YNILVK the amyloid nucleation score was -0.622 ± 0.43.
For YNMCYNG, the amyloid nucleation score was -0.781 ± 1.1.
In the case of YNQVYES, the amyloid nucleation score is reported as 2.84 ± 0.054.
YNSNNRAILSLLHDQRNLYG gave an amyloid nucleation score of 0.643 ± 0.16.
Work on YNSVKLLEGPFLCSSLTGS yielded an amyloid nucleation score of 0.444 ± 0.6.
With YNTPIIPAWVFSFHQWPEAF the amyloid nucleation score was -1.6 ± 1.1.
